Test results as given in publication PMC9400901, “Advanced Insights into Catalytic and Structural Features of the Zinc‐Dependent Alcohol Dehydrogenase from Thauera aromatica” (Chembiochem, 2022).

Experiments:
Type in all cases: biochemical, Thauera aromatica
[1] = substrate: O=C1CCCCC1Br; experiment: Michaelis-Menten kinetics, reduction; photometric standard assay or FDH-coupled biotransformation; settings: NADH 0.25 mmol L^−1, potassium phosphate pH 6.5, room temperature, 3 % (v/v) DMSO, racemic substrate
From the text: (§1) Michaelis-Menten kinetics, reduction; photometric standard assay or FDH-coupled biotransformation on ThaADH

[2] = substrate: O=C1CCCCC1Cl; experiment: as above; settings: NADH 0.25 mmol L^−1, potassium phosphate pH 6.5, room temperature, 1 % (v/v) DMSO, racemic substrate
From the text: as §1

[3] = substrate: O=C1CCCCC1=O; experiment: as above; settings: NADH 0.25 mmol L^−1, 100 mmol L^−1 potassium phosphate pH 6.5, room temperature, solubility limit reached
From the text: as §1

purified protein [4] = substrate: NC(=O)c1ccc[n+]([C@@H]2O[C@H](COP(=O)(O)OP(=O)(O)OC[C@H]3O[C@@H](n4cnc5c(N)ncnc54)[C@H](O)[C@@H]3O)[C@@H](O)[C@H]2O)c1; experiment: purified protein; settings: oxidation, co-substrate not given, standard assay pH 9.0, 40 °C, pH 9.0, varied: cofactor
purified protein [5] = substrate: NC(=O)C1=CN([C@@H]2O[C@H](COP(=O)(O)OP(=O)(O)OC[C@H]3O[C@@H](n4cnc5c(N)ncnc54)[C@H](O)[C@@H]3O)[C@@H](O)[C@H]2O)C=CC1; experiment: purified protein; settings: reduction, co-substrate not given, standard assay pH 6.5, 40 °C, pH 6.5, varied: cofactor
purified protein [6] = substrate: CC1=CC(O)CCC1; experiment: purified protein; settings: oxidation, standard assay: NAD+ 1 mmol L^−1, 100 mmol L^−1 HEPES pH 9.0, 40 °C, pH 9.0
purified protein [7] = substrate: NC(=O)c1ccc[n+]([C@@H]2C[C@H](COP(=O)(O)OP(=O)(O)OC[C@H]3O[C@@H](n4cnc5c(N)ncnc54)[C@H](O)[C@@H]3O)[C@@H](O)[C@H]2O)c1; experiment: purified protein; settings: oxidation, co-substrate not given, standard assay pH 9.0, 40 °C, pH 9.0, varied: cofactor

B1: ThaADH (Thauera aromatica) (protein)
chain: MSSNPHRWMMTSPGAPMVRAEFEIGELSADQVVVAVAGCGVCHTDLGYYYDSVRTNHALPLALGHEISGRVVQAGANAAQWLGRAVIVPAVMPCGTCELCTSGHGTICRDQVMPGNDIQGGFASHVVVPARGLCPVDEARLAAAGLQLADVSVVADAVTTPYQAVLQAGVEPGDVAVVIGVGGVGGYAVQIANAFGASVVAIDVDPAKLEMMSKHGAALTLNAREISGRDLKKAIEAHAKANGLRLTRWKIFECSGTGAGQTSAYGLLTHGATLAVVGFTMDKVEVRLSNLMAFHARALGNWGCLPEYYPAALDLVLDKKIDLASFIERHPLDQIGEVFAAAHAHKLTRRAILTP
notes: full-length WT, recombinant in E. coli BL21(DE3), pET22b; C-terminal Strep-tag for all kinetics, N-terminal His-tag for crystals; about 40 kDa monomer, dimer in solution (89 kDa by SEC; tetramer and higher in blue native PAGE), two zinc per monomer
Km [1]: 24.1 ± 6.8 mM
Vmax [1]: 6.3 µmol/min/mg
kcat [1]: 4.62 ± 0.47 s⁻¹
kcat/Km [1]: 190 ± 70 M⁻¹ s⁻¹
Km [2]: 33.1 ± 10.4 mM
Vmax [2]: 14.9 µmol/min/mg
kcat [2]: 10.9 ± 1.38 s⁻¹
kcat/Km [2]: 330 ± 150 M⁻¹ s⁻¹
Km [3]: 68.1 ± 33.8 mM
Vmax [3]: 53.3 µmol/min/mg
kcat [3]: 39.1 ± 10.1 s⁻¹
kcat/Km [3]: 570 ± 430 M⁻¹ s⁻¹
Km (purified protein [4]): 1.0 ± 0.2 mM
Vmax (purified protein [4]): 2.2 µmol/min/mg
kcat (purified protein [4]): 1.63 ± 0.1 s⁻¹
kcat/Km (purified protein [4]): 1630 ± 430 M⁻¹ s⁻¹
Km (purified protein [5]): 0.07 ± 0.02 mM
Vmax (purified protein [5]): 9.1 µmol/min/mg
kcat (purified protein [5]): 6.63 ± 0.74 s⁻¹
kcat/Km (purified protein [5]): 94700 ± 37600 M⁻¹ s⁻¹
Km (purified protein [6]): 21.6 ± 1.9 mM
Vmax (purified protein [6]): 2.4 µmol/min/mg
kcat (purified protein [6]): 1.77 ± 0.05 s⁻¹
kcat/Km (purified protein [6]): 80 ± 10 M⁻¹ s⁻¹
Km (purified protein [7]): 0.7 ± 0.1 mM
Vmax (purified protein [7]): 0.9 µmol/min/mg
kcat (purified protein [7]): 0.66 ± 0.04 s⁻¹
kcat/Km (purified protein [7]): 940 ± 190 M⁻¹ s⁻¹
